A word on the EC50: it is the concentration that produces a half-maximal response. A lower EC50 goes with a more potent agent. Usually EC50 (read off the curve) stands for the concentration needed to bring the measured effect to its halfway point.

Test [1] concerns the target T1, human CD73 (ecto-5'-nucleotidase) expressed at the cell surface (human, UniProt P21589 27-549).
T1 construct: Used for huCD73-expressing recombinant cell lines, MDA-MB-231 cells (endogenous CD73), HEK-293T cells with wild type CD73, and primary T and B cells; also called huCD73; wild type CD73
T1 sequence: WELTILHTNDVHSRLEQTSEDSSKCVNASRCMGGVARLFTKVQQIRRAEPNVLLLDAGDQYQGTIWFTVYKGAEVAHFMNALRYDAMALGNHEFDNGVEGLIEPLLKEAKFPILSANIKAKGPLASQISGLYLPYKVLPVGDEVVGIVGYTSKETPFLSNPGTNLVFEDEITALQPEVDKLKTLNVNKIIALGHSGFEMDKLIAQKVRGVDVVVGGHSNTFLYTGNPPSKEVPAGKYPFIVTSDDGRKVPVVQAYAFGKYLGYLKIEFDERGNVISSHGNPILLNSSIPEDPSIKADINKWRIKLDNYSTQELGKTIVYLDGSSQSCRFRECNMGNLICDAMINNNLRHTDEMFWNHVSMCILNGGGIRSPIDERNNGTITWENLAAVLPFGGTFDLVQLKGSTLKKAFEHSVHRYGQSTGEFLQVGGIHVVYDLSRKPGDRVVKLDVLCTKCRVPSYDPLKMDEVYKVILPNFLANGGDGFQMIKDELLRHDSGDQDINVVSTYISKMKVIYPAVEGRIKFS
The test can be described thus: flow cytometry titration on MDA-MB-231 cells, endogenous CD73. On the procedure: (§1) 10⁵ cells resuspended in PBS/0.2% BSA/0.02% NaN3 (named “staining buffer”) are distributed into round bottom 96W-microplates. Dose-range of anti-CD73 antibodies was added to the plates and cells are incubated for 45 min at 4° C. Cells were washed three times in staining buffer by spinning plates at 400 g for 3 min at 4° C. PE-coupled goat anti-mouse or goat anti-human IgG Fc fragment secondary antibodies (Beckman Coulter) diluted in staining buffer were added to the cells and plates are incubated for 30 additional minutes at 4° C. Cells were washed three times as described above and analyzed on an Accury C6 flow cytometer equipped with an HTFC plate reader.
(§2) Median of fluorescence vs. antibodies concentration was plotted on graphs and EC50 is calculated using GraphPad Prism program.

Test [2] deals with T2, cynomolgus CD73 expressed at the cell surface (cynomolgus).
T2 construct: whole, on cells; Recombinant cell line expressing cynomolgus CD73; also called cynoCD73
Put plainly: flow cytometry titration on cynomolgus-CD73-expressing cell line. On the procedure: as §1, §2

Test [3] concerns the target T3, human CD73 mutant 4 (human, UniProt P21589 27-549).
T3 construct: Transfected in HEK-293T cells
T3 chain: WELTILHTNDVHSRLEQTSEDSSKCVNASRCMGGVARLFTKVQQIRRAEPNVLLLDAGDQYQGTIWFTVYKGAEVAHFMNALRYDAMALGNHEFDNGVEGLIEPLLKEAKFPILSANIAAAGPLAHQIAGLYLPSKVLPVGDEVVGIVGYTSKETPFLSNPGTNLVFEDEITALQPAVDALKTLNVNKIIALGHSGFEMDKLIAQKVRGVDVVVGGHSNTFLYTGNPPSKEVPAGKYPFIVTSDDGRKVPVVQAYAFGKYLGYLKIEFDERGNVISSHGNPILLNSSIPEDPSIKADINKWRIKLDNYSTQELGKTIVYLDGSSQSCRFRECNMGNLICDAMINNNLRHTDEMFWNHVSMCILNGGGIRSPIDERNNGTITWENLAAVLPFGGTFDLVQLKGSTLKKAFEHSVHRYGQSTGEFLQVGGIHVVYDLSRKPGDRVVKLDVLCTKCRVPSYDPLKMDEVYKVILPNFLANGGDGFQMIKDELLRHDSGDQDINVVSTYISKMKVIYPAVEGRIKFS
The test can be described thus: flow cytometry titration on HEK-293T cells transfected with CD73 mutant 4. On the procedure: (§3) Anti-CD73 antibodies are tested for their binding to each mutant by flow cytometry. A first experiment is performed to determine antibodies that lose their binding to one or several mutants at one concentration. To confirm a loss of binding, titration of antibodies is done on antibodies for which binding seemed to be affected by the CD73 mutations (1-0.1-0.01-0.001 μg/ml).
For orientation: Flow cytometry measures light scatter and fluorescence of single cells or particles in a stream.

Test [4] addresses T4, human CD73 mutant 2 (human, UniProt P21589 27-549).
T4 construct: Transfected in HEK-293T cells; The cell prints A1071, read as A107I
T4 chain: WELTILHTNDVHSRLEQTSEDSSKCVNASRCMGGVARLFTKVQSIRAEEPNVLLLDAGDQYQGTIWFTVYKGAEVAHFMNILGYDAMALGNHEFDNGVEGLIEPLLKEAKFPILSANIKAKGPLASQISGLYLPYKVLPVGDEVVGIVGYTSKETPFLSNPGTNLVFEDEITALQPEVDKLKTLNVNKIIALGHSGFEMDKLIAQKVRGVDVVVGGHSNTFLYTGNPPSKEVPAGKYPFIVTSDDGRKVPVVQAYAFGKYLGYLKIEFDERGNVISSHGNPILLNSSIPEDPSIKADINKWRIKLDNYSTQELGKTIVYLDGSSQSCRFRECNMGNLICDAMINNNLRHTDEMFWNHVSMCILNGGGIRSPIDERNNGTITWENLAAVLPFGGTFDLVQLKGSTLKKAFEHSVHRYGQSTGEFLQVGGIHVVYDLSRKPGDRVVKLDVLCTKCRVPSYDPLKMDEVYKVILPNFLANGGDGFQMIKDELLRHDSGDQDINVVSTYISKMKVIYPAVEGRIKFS
Put plainly: flow cytometry titration on HEK-293T cells transfected with CD73 mutant 2. Here is the method:
as §3

Test [5] concerns the target T1, human CD73 (ecto-5'-nucleotidase) …. The test can be described thus: flow cytometry titration on HEK-293T cells transfected with wild type human CD73. Here is the method:
as §3

B1: antibody 7H10 (antibody, human IgG1, V domains shown)
VH: DVQLQESGPGLVKPSQSLSLTCTVTGYSITSDYAWNWIRQFPGNKLEWMGYIIYSGSTSYNPSLNSRISITRDTSKNQFFLQLNSVTTEDTATYYCAREAYLYFDYWGQGTTLTVSS
VL: DIQMTQTTSSLSASLGDRVTISCRASQDINNYLNWYQQKPDGTVKLLIYYTSRLHSGVPSRFSGSGSGTDYSLTISNLEREDVATYFCQQGNTLPWTFGGGTKLEIK
As for B1, the EC50 in test [1] was found to be 0.054 µg/mL; in test [2], 0.335 µg/mL. Further, in test [1], the “fold lower EC50 than AD2” value was around 8 fold. Moreover, the “EC50 (read off the curve)” value in test [3] and in test [5] was around 0.2 µg/mL each time. In addition, in test [4], the binding result is “no binding (tested: 10 µg/ml)”.

The values above are taken from patent publication US20190225703A1 (INNATE PHARMA, published 2019).
